In EP2363413A1 (YISSUM RESEARCH DEVELOPMENT COMPANY OF THE HEBREW …, dated 2011):

Experiments:
[1] = biological target: soluble CD28 (sCD28), human CD28 extracellular domain fused to His6-tagged human IgG1 Fc (human) (UniProt P10747); assay: SPR, format not stated (sCD28 was among the immobilized ligands)
[2] = biological target: staphylococcal enterotoxin B (SEB) (Staphylococcus aureus) (UniProt P01552); assay: SPR (BIAcore 3000, 25°C), SEB immobilized on CM5 chip, sB7-2 injected
[3] = biological target: T1, staphylococcal enterotoxin B (SEB) (Staphylococcus aureus, UniProt P01552 28-266); assay: SPR (BIAcore 3000, 25°C), SEB immobilized on CM5 chip, soluble receptor injected
T1 sequence: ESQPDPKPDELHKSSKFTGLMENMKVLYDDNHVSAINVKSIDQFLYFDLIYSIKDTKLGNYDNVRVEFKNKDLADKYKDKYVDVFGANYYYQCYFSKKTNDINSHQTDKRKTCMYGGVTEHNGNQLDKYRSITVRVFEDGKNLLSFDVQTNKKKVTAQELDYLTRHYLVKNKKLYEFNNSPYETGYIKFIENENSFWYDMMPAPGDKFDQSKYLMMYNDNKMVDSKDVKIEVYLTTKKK

“anti-CD28 monoclonal antibody MAB342, clone 37407.111 (R&D Systems)” was tested. Which Kd [1] did it give?
Its Kd is 2 nM.

Which Kd [2] does the source give for “soluble B7-2 (sB7-2), human B7-2 extracellular domain fused to His6-tagged human IgG1 Fc (from UniProt P42081 20-239) (Fc fusion)” here?
The Kd was 25 nM.

B1: soluble ICOS (sICOS), human ICOS extracellular domain fused to His6-tagged human IgG1 Fc (Fc fusion)
chain (part 1 of 2): EINGSANYEMFIFHNGGVQILCKYPDIVQQFKMQLLKGGQILCDLTKTKGSGNTVSIKSLKFCHSQLSNNSVSFFLYNLDHSHANYYFCNLSIFDPPPFKVTLTGGYLHIYESQLCCQLKF
chain (part 2 of 2): HHHHHH
notes: range 21-141
Which Kd [3] does the source give for B1 here?
The Kd was 21 nM.
